This data set relates to HEK293T. Briefly: median enrichment of reporter reads in eGFP-reduced (low/intermediate) vs eGFP-high sorted cells (eGFP-extension fusion abundance) (ratio); higher = stronger loss of eGFP-fusion protein abundance (more destabilising extension).
Consider KCSIYIYN [REC114], for which the median enrichment was 18.5. Regarding “KCYRLNDSASRLPKSKALFRAAHSFPQKSS [HIST1H4E]”, the median enrichment worked out at 8.92.

Regarding KDCDFFVKEAVRIIINNSNSLHFSQGVHCS [MAATS1], the median enrichment came out at 5.42. Take KDS [RPAP1]: the median enrichment was 0.532.

KECSKCGGKS [ZNF671]: the median enrichment came to 0.995. As to KEENKQNQPPHHRVLQQDMHTIGA [CDCA7L], the median enrichment came out at 11.9. To KEHLWFT [NPAP1] belongs 1.2; to KELFQFIE [FOXJ3], 0.495. On to KFFRMQPGGTWI [DCAF4L2], for which the median enrichment is 2.96.

As to KFGAQTSP [SPRR3], the median enrichment stood at 0.603. For KFLSF [FNBP4], the median enrichment turned out to be 1.62. To KFRSPHFSAPRMVLFIFHHL [SLC43A3] belongs 9.56.

With “KFSLLHYVHKGDHYHWGRNSCLVQCGKFLYIR [PDZRN3]”, the median enrichment is 12.1.

Regarding KFVISFICIYVVN [HEATR5B], the median enrichment was 13.7.

As for KGN [CYTL1], the median enrichment was found to be 0.283. On to “KGPEPGWGISAGQRRRLSQLFPDIQGHCSLLPSRTSLLPPTMAGGEQVSQKHPVPRMVLCACPSLLGLPFPLLREDVSLLTCT [KIRREL1]”, for which the median enrichment was found to be 7.38. As for “KGPPLLILPTPPPRFSHWPGLGCPYRRSVCSPTVRRGHTLQNTAQNSKKSLHAK [IFI35]”, the median enrichment is 11.2. In the case of “KGPPRAQGPGAPRGWGQTKTRQRGERRERAGAGPLGAELGASGGRRLMFYKL [IER5L]”, the median enrichment came out at 40.8. Consider KGRGPAESPCCLLEPPADAVLGPT [MBD3], for which the median enrichment came to 1.08.

As to KGRINK [NPIPA1], the median enrichment is 0.274. To KHGGFGS [AKAIN1] belongs 0.558; to “KHHQSVKGLCGMQEFQTHGQSGLFFLVLRASSEHRSHIAAHREGWNEKWKRGSTFLLGDMNHLCSYYVIRNLVAWPYLAAREP [CFAP61]”, 4.22. To KHLHVLSNFACPFSSVSE [CYB5R2] belongs 2.44; to KHVVLWVHFV [ABHD3], 10.5; to KICQDKGSEDWTCSDIGVLLPSS [MAPK1], 2.3. With “KIFFSPIFLPASGDTAAVTREASLGGPDAQGESWSGESMSCDTTAGAICSPAFLSVGEGISEFILYPRLAFTKFKSLSMRPRP [PGPEP1]” the figure was 11.5; with KIFLELLAIVTECPPFQSQLKTSAP [HEY2], 4.36; with “KILNLVCRPSRGIKRLALVVKNKADSQTRSDFCPCSSFDVLSVALFLIASSTCKMLFTFCLG [DAB2]”, 18.3.

For the substance KIMRHTV [TBC1D32], the median enrichment is 6.86. With “KISVETYTVSSQLLMVLMSLDLDTGLVPSLVSKCLILRVK [VHL]” the figure was 5.01. As for KITF [SNCAIP], the median enrichment amounted to 0.77. “KIWLFMHCGMCSSFSVFRYKVLYQSVIYKVYQHKCW [MLH1]”: the median enrichment stood at 5.38. To KKCEECGKSFS [ZNF676] belongs 0.361.

Consider KKEKKQAILDENANGKIHITSYLL [PRDM4], for which the median enrichment turned out to be 6.45. Regarding KKK [Lys03], the median enrichment came to 0.373. To KKKEKKAKKKK [IQCA1] belongs 0.903; to KKKK [Lys04], 0.575; to KKKKK [Lys05], 0.46. For the substance KKKKKK [Lys06], the median enrichment was 1.5.

On to KKKKKKK [Lys07], for which the median enrichment was 0.751. With KKKKKKKK [Lys08] the figure was 1.65; with KKKKKKKKK [Lys09], 3.65; with KKKKKKKKKK [Lys10], 1.08. With KKKKKKRRKKLL [CCNT1], the median enrichment turned out to be 0.26.

Consider “KKKKKQQVMELHILVTQWTIIGSHWKSGKNPWRLSFSDILPNALLSRIFVSFCLIFWGVFVVVGLFFVFFF [PPP1R12A]”, for which the median enrichment was 4.71. To KKKLSHREKNI [OGA] belongs 0.598; to KKLRS [CRYGN], 0.509; to KKNQNGLR [ADGRB3], 0.618. Turning to KKNVEAIGLLGG [Degron KLHDC2], the median enrichment was 5.08.

Turning to KKPPAQLETC [METTL16], the median enrichment came out at 0.455. With KKSSINVLSIGKYT [GRIN2A] the figure was 1.77; with KKTSSR [LGALS2], 0.594. For KKVGRARPCQRG [Degron KLHDC3], the median enrichment was determined as 6.66.

On to KKVGTMRGVGYP [Degron APPBP2], for which the median enrichment amounted to 4.39. On to KLDLII [OR4S2], for which the median enrichment was 1.99. With KLICKIRNWTHIALFECEVR [RNF182] the figure was 12.7. With KLQC [OR4C6] the figure was 0.547; with KLSNH [WDR27], 0.453; with KMDPCEIYHSLVSPSFLSFLNSTFWRDFPK [OR9Q2], 3.34.

For the substance KMF [EFCAB2], the median enrichment turned out to be 0.649. With “KNAPSDLASKKSCSVPCVLSFKGIFRINSDLEDSSVLQRLAFIFIVIMEMLSFILSYIRKKGVMQLISISLGNALVLFSSFLV [CREB5]”, the median enrichment was found to be 15.5. Turning to KNAQLL [ROR1], the median enrichment amounted to 0.376.

Regarding KNF [PLXDC2], the median enrichment worked out at 0.62.

In the case of KNQGCFEGKGSLSYALLYHQDYILKRKSSM [GPR65], the median enrichment is 11.5.

For “KPERSQDPSRQHQLTDALVVPPSSPDCARSAVPSSGHLSSLWVPPHPSPC [RBP5]”, the median enrichment is 5.79.

As to KPGNPYSFSNTGSFI [ADAM30], the median enrichment was determined as 0.59. To KPKEVPGTVSDLERSQKENNIIK [CELA2A] belongs 0; to KPSEFSL [CD163], 0.535. With KPVLGPSVKYP [GNPDA1] the figure was 0.312; with KQEWQSKLKL [UHRF1BP1L], 0.342; with KQGRWERDCLLPLLSSSCLEVEAV [GRM6], 6.27. To KQIKLDEIYNYLIAQ [MDH1B] belongs 18.9; to KQP [PSG11], 0.269; to KQQPV [DPPA2], 0.433. KQRRWTFCSNVYMYRIVHTSNSEDLYL [SLC10A7]: the median enrichment was found to be 6.06. To KQWQQLGLETSRWCWDHLSLLLLASHSL [PACRG] belongs 7.92; to KRASTSEWPHLCPRC [NUMA1], 0.399. Regarding “KRGCGSQGGLQGTGMSGGHQAQRKRKQREFTGPPEKSQSDVCRHLPIPASLARALLGPEQRRTCPTHTAIYSSRHRAPLPYSW [CRHR2]”, the median enrichment was determined as 4.02.

Regarding KRGTGGRGRGVLHEMLMLSVISGESV [FAM98C], the median enrichment is 7.54. As to KRKLKNGCLELVLQLL [REG1B], the median enrichment is 6.65.

With KRL [CYP17A1], the median enrichment was found to be 0.493.

KRQK [CCR2]: the median enrichment is 0.621. With KRRIYVLFKQEKVTLPMLSPLHNI [CDH10] the figure was 4.44. In the case of KRTQPPSAQREATSQPRGGRIRKQSHS [CCK], the median enrichment is 0. With KRYPLNIFVEVSYLYQRLGLPI [C7orf25] the figure was 15.9. Take KSFPLTLLQIGL [PTHLH]: the median enrichment worked out at 19.8.

As to “KSIIILQHLRVWQLFVWAFAHAMPSLPSPTPTRGDS [SPATA12]”, the median enrichment is 8.97.

As for KSTSSHETE [UNC5D], the median enrichment came out at 1.07. To “KSYLSLSNGMKLDNFKKLSRTKGERNTCSFSCN [KLHL4]” belongs 5.48; to KTAPPTSVQAGRSP [NCAPD3], 7.59; to KTCIHFLQTI [BACH1], 2.97. With KTIQKRNQFFPQSIQCLEY [HEATR3] the figure was 5.13. With KTKAKYIDFTVILKYNKNC [IL26] the figure was 5.5; with “KTNKMRSSLWSFNSLMQIKTQTSLQALAYYSCIKNFGWGDLGA [MTRNR2L7]”, 7.22.

Consider “KTQMRASLRLPETARPKSQVQSFPTPLKFIVSSREKQIPIHPTNRCIVWVLEVPSKLLLVRLG [PPEF1]”, for which the median enrichment came to 14.2.

With KTTFPKENIRGFHC [CPVL], the median enrichment was 0.477. To KVCRSQ [KRTAP11-1] belongs 3.09. Regarding KVKP [TRPC5], the median enrichment stood at 0.338. With “KVPMSQPGLWLPSIPSPEMAPWDEEGRVGCWCRIKIWQDRLPQGHRPLPPTRTPPTQLPLRVL [ITGA7]” the figure was 17.1; with “LAAGVAMMGWSSLGQGVLGPTPTPPPRHHFPSRFLRLDLGSPLPVMHSCPGPTSPSLTSLELWPPRKGPIQPRLFTEVVLFMK [SCN1B]”, 4.89; with LAAHPASSHVVWEQRDSHLRGGV [RASAL3], 2.07. To “LAASRATSPHVGCPSWGREGQSVGWLGRGLALVGQPTPQPERA [RBM10]” belongs 8.96; to “LAAWDRSTNYTGSGIRVSKMSYECRSEGHMLTLESVER [NLRP7]”, 13.6. As to LACPFCPVGPQAHSGVTEA [TLX1], the median enrichment is 6.73.

Consider LADI [MED30], for which the median enrichment stood at 0.335. With LADP [AKAP4] the figure was 0.662; with “LAEDPADPYLEEEEKQERESHSQPAIGSNWTTCGMDLETSTSPNTSPLPRAGPVHALP [CYFIP2]”, 1.33; with LAEEVGMGALCLLC [FGA], 11.4. To “LAFRLALAPGTRSPRAPGPLPAPAAPSPSPGCVSLPMTLSWGPPARPGTFLPNPQTHDSLPHRLPQRPPTHFILSGHPSDLDP [SCRT2]” belongs 3.18; to “LAGAAGVPPAPGPWVSAARPPPVPAVLSVHWGPSVVPFVENLLHKALLNCLELGTSIPMETSPVWGTWRICQRLSDMGPWQFY [NYNRIN]”, 6.95. To LAGVFVPVSLILSRH [KCNS3] belongs 5.72; to LAGWDHPPAPQLHALP [INSYN2B], 0.774.

(Values after the supplement of paper PMC11502859.)
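Also: lentiviral eGFP-IRES-mCherry reporter pool sorted by FACS 96 h post-transduction, gated on mCherry-high cells, Illumina read counts normalized per million, median across four biological replicates.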
